Measured values taken from IntAct's records for PubMed 20956536.

B1: Myosin regulatory light polypeptide 9 (Homo sapiens), P24844 (parent)
chain: MSSKRAKAKTTKKRPQRATSNVFAMFDQSQIQEFKEAFNMIDQNRDGFIDKEDLHDMLASLGKNPTDEYLEGMMSEAPGPINFTMFLTMFGEKLNGTDPEDVIRNAFACFDEEASGFIHEDHLRELLTTMGDRFTDEEVDEMYREAPIDKKGNFNYVEFTRILKHGAKDKDD
B2: Coiled-coil domain-containing protein 141 (Homo sapiens), Q6ZP82-1 (parent)
chain: MSSQGSPSVALSTTTVSSVAVQAGDSKIVIAVIKCGKWVQLQLAESQPNLLEIGSSQDETKKLLHDHELLLAKLKALEDRVWELLQEADKTAEENKDQSQVYDAMAETLGEAWAALVSMLERRTELLRLTSEFFENALEFAIKIDQAEDFLQNTHEFESAESLKSLLQLHEHHTKELLERSLALLNKSQQLTDFIEKFKCEGPNVNPELTQGAHSSCLKVDRLLELLQDRRRQLDKYLKQQWQELSQVLQICQWDQQENQVTCWFQKTIRNLQEQSLGSSLSDNEDRIHKQEELIIKAKEWNSAVEKLKSEALRILLSKDYVEKEHLQLSHQKLSQLQEEFGQLMVERNTWLKKANEFFNSANKAFDVLGRVEAYLKLLKSEGLSLAVLAVRHEELHRKIKDCTTDALQKGQTLISQVDSCSSQVSGIHEMMGCIKRRVDHLTEQCSAHKEYALKKQQLTASVEGYLRKVEMSIQKISPVLSNAMDVGSTRSESEKILNKYLELDIQAKETSHELEAAAKTMMEKNEFVSDEMVSLSSKARWLAEELNLFGQSIDYRSQVLQTYVAFLKSSEEVEMQFQSLKEFYETEIPQKEQDDAKAKHCSDSAEKQWQLFLKKSFITQDLGLEFLNLINMAKENEILDVKNEVYLMKNTMENQKAEREELSLLRLAWQLKATESKPGKQQWAAFKEQLKKTSHNLKLLQEALMPVSALDLGGSLQFILDLRQKWNDMKPQFQQLNDEVQYIMKESEELTGRGAPVKEKSQQLKDLIHFHQKQKERIQDYEDILYKVVQFHQVKEELGRLIKSRELEFVEQPKELGDAHDVQIHLRCSQEKQARVDHLHRLALSLGVDIISSVQRPHCSNVSAKNLQQQLELLEEDSMKWRAKAEEYGRTLSRSVEYCAMRDEINELKDSFKDIKKKFNNLKFNYTKKNEKSRNLKALKYQIQQVDMYAEKMQALKRKMEKVSNKTSDSFLNYPSDKVNVLLEVMKDLQKHVDDFDKVVTDYKKNLDLTEHFQEVIEECHFWYEDASATVVRVGKYSTECKTKEAVKILHQQFNKFIAPSVPQQEERIQEATDLAQHLYGLEEGQKYIEKIVTKHKEVLESVTELCESLTELEEKLKQGDVLKMNPNLEDFHYDYIDLLKEPAKNKQTIFNEERNKGQVQVADLLGINGTGEERLPQDLKVSTDKEGGVQDLLLPEDMLSGEEYECVSPDDISLPPLPGSPESPLAPSDMEVEEPVSSSLSLHISSYGVQAGTSSPGDAQESVLPPPVAFADACNDKRETFSSHFERPYLQFKAEPPLTSRGFVEKSTALHRISAEHPESMMSEVHERALQQHPQAQGGLLETREKMHADNNFTKTQDRLHASSDAFSGLRFQSGTSRGYQRQMVPREEIKSTSAKSSVVSLADQAPNFSRLLSNVTVMEGSPVTLEVEVTGFPEPTLTWWVAYNDKP
partner: B1 chain
B3: Coiled-coil domain-containing protein 141 (Homo sapiens), Q6ZP82-1 (parent)
chain: B2 chain
partner: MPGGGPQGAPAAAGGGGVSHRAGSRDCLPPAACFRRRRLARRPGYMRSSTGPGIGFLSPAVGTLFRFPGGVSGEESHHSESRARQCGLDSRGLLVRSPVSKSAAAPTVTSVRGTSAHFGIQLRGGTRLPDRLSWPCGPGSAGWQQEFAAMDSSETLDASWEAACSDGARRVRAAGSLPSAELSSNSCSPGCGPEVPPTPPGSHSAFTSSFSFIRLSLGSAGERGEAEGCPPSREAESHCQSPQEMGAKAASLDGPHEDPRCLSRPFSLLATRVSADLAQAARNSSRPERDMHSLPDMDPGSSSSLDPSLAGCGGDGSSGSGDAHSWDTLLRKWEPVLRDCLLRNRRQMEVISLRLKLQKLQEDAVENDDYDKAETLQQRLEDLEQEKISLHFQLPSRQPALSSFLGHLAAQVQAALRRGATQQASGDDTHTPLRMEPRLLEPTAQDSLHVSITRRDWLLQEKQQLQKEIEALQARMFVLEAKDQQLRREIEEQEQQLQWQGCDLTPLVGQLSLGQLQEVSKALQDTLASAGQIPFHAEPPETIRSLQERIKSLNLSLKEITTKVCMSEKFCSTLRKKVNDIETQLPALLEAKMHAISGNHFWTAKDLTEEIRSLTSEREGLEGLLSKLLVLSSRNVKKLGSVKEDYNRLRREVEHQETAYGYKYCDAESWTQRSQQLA

Variants of: B1
Details: with cc141_mouse Ccdc141, E9Q8Q6
Chain of cc141_mouse Ccdc141, E9Q8Q6 (E9Q8Q6 whole entry): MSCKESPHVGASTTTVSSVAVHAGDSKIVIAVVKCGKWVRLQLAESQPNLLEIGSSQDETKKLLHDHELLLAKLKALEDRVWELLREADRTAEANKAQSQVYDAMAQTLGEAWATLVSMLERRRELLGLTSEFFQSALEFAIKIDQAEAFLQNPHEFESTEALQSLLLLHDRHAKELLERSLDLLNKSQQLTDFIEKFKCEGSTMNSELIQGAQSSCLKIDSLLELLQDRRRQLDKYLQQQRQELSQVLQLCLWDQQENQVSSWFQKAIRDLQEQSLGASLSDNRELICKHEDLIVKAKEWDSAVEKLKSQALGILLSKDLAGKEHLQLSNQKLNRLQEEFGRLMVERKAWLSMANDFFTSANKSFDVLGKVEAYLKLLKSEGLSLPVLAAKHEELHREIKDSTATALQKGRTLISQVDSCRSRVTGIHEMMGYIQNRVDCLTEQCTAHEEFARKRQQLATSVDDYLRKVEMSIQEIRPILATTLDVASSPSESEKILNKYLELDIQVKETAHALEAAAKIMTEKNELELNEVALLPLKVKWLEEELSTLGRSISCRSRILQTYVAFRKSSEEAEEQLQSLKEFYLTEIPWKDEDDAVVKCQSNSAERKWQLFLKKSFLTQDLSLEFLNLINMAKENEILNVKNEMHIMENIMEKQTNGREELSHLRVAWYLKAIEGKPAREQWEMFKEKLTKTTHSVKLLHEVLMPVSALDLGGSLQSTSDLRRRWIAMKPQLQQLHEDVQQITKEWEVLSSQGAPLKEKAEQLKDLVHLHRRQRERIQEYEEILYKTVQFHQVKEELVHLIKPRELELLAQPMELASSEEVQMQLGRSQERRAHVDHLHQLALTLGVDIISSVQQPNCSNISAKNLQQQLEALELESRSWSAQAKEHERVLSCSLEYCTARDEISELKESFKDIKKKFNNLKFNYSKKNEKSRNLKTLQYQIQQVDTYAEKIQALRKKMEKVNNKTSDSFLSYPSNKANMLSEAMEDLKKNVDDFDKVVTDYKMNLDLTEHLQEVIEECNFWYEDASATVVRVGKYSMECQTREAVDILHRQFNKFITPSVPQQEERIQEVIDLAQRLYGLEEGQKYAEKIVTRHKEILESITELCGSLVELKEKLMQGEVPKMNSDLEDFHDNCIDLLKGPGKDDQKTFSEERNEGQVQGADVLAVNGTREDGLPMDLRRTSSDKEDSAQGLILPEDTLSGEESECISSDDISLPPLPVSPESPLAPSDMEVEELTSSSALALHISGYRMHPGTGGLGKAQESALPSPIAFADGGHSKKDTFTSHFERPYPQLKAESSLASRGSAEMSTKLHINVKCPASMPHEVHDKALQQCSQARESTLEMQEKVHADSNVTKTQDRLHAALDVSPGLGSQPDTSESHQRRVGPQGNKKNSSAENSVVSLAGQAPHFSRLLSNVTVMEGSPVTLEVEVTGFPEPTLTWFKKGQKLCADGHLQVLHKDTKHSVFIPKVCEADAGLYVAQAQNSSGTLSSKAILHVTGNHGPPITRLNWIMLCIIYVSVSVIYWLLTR

| Variant | effect of a mutation on the interaction |
| --- | --- |
| MSSKRAKAKTTKKRPQRAAANVFAMFDQSQIQEFKEAFNMIDQNRDGFIDKEDLHDMLASLGKNPTDEYLEGMMSEAPGPINFTMFLTMFGEKLNGTDPEDVIRNAFACFDEEASGFIHEDHLRELLTTMGDRFTDEEVDEMYREAPIDKKGNFNYVEFTRILKHGAKDKDD | disrupting interaction strength |
| MSSKRAKAKTTKKRPQRADDNVFAMFDQSQIQEFKEAFNMIDQNRDGFIDKEDLHDMLASLGKNPTDEYLEGMMSEAPGPINFTMFLTMFGEKLNGTDPEDVIRNAFACFDEEASGFIHEDHLRELLTTMGDRFTDEEVDEMYREAPIDKKGNFNYVEFTRILKHGAKDKDD | increasing interaction strength |

Variants of: B2
Details: with myl9_human MYL9, P24844

| Variant | effect of a mutation on the interaction |
| --- | --- |
| R828W | disrupting interaction strength |

Variants of: B3
Details: with DISC1, Q9NRI5-3

| Variant | effect of a mutation on the interaction |
| --- | --- |
| R828W | with no effect |
